# From US10583167B2, “Mammalian glucosidase inhibitors, methods for their use and pharmaceutical compositions thereof” (THE UNIVERSITY OF BRITISH COLUMBIA, priority 2015, dated 2020)
# “Also recorded” adds a separate entry of the source. Bridges are numbered along the chain shown (N, C = ends).
# Experiments:
# [1] = biological target: T1, mammalian alpha-amylase (Homo sapiens, UniProt P04746); assay: Inhibitory activity of truncated and fusion peptides; assay type: biochemical; details: for Inhibitory Activity: truncated peptides
# T1 sequence (P04746 16-511): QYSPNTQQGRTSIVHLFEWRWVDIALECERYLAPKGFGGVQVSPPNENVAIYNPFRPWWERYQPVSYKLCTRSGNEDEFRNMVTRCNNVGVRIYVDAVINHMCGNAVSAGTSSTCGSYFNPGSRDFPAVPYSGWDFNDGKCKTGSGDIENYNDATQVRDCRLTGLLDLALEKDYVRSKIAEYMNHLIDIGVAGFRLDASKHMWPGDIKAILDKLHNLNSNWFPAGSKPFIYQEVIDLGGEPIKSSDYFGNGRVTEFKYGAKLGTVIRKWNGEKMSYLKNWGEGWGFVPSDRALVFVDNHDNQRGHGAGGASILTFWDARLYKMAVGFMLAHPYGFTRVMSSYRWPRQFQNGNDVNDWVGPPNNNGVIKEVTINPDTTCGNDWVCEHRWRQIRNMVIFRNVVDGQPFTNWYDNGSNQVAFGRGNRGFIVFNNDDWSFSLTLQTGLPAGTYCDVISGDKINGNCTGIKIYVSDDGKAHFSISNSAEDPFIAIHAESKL
# [2] = biological target: T2, human pancreatic α-amylase (HPA) (Homo sapiens, UniProt P04746); details: from parallel screen; read-out: Ki against HPA; cited from earlier work
# T2 construct: made in house; host or cells: Pichia pastoris
# T2 sequence (P04746 16-511): T1 sequence (P04746 16-511)
# [3] = 11M HCl at 37° C. for four days, HPLC
# Protocol: The sample was diluted and neutralized before desalting by C18 reverse phase chromatography. The peptide mixture was injected into an Agilent™ 6460 QQQ LC/MS mass spectrometer. Elution and MS/MS analysis was carried out over a 40-minute period. A script was written to predict all possible fragments for the helianthamide sequence in the event of random hydrolysis and was used to analyze the resulting MS and MS/MS peaks.
# Intact peptide was incubated in 11M HCl at 37° C. for four days.
# [4] = system: trypsin, chymotrypsin, proteinase K, and Lys-C
# [5] = biological target: Human maltase-glucoamylase (Homo sapiens, UniProt O43451); assay: Inhibitory specificity: kinetic analysis; assay type: biochemical; details: up to 1 μM
# Chain of Human maltase-glucoamylase (O43451 whole entry): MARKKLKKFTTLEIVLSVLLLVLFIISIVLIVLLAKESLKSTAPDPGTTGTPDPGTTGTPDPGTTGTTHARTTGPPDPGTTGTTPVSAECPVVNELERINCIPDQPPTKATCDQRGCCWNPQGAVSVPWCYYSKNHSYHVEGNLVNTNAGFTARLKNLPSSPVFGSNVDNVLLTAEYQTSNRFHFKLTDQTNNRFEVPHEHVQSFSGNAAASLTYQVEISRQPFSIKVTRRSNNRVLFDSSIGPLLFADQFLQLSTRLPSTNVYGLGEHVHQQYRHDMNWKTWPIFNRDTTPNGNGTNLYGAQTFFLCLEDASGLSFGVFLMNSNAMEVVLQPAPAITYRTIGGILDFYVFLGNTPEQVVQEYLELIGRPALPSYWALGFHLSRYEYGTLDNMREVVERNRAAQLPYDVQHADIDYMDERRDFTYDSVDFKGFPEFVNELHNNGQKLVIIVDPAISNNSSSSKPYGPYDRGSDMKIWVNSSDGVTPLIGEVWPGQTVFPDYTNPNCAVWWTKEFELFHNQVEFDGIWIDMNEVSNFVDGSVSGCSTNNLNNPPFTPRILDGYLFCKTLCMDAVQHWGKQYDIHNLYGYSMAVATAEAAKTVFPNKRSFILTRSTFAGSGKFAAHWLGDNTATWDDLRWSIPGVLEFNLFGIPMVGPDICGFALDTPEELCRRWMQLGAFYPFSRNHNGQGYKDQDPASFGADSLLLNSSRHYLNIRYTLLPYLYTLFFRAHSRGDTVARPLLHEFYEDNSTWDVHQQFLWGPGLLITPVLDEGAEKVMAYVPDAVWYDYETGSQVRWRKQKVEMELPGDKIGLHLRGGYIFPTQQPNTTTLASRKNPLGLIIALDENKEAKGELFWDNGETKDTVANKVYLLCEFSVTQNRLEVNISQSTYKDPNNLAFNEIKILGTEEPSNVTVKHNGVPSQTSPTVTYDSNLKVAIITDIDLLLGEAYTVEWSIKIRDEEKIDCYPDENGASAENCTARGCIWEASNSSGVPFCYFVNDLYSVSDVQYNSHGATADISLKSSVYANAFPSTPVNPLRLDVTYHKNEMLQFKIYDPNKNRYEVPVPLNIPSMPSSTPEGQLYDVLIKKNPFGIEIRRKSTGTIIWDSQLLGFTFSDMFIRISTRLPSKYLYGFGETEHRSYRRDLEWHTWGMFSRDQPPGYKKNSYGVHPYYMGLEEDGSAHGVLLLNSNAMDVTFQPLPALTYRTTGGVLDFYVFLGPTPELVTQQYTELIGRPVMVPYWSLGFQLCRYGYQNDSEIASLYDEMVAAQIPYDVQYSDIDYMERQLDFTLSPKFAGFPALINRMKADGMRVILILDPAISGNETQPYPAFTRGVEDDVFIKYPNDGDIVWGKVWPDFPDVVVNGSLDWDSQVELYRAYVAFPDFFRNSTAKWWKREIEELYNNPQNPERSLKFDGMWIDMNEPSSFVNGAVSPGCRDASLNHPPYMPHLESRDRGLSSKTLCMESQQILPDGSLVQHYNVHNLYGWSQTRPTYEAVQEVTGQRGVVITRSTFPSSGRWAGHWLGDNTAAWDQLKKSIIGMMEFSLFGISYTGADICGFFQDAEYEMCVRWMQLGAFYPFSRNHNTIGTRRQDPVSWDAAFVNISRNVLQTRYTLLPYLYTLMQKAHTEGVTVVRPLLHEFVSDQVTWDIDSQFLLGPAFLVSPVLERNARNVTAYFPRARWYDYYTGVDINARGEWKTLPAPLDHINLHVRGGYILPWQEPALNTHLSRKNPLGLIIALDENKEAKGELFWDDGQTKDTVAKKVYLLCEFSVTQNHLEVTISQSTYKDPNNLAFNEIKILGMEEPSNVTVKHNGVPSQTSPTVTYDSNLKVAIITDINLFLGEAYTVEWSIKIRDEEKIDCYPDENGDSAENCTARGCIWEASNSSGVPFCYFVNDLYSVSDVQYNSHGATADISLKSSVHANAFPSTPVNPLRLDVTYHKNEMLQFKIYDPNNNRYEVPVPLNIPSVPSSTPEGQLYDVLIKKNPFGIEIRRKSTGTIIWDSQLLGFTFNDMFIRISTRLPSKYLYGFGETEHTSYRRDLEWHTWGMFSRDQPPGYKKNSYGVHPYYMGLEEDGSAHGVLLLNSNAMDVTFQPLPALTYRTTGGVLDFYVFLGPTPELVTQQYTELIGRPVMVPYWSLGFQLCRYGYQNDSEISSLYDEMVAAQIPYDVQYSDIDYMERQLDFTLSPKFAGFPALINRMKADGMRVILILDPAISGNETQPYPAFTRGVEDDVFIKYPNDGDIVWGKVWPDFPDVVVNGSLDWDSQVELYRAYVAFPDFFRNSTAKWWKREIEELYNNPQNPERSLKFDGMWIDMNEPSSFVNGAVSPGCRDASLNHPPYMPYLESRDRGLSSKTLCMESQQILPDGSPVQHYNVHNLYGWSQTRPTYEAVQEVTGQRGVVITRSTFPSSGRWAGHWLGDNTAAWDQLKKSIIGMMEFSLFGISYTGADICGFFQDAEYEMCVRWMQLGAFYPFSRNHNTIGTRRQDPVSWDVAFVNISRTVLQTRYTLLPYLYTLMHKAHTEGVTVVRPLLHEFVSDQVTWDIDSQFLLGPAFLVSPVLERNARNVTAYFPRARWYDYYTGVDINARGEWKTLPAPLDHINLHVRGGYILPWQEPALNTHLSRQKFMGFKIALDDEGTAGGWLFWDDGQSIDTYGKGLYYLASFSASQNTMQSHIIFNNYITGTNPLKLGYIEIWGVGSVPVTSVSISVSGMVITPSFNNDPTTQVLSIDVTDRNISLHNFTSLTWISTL
# Protocol: (§1) Assays were performed on a Varian Cary 300™ UV/Vis spectrophotometer. The release of 2-chloro-nitrophenol resulting from the amylase catalyzed hydrolysis of 2-chloro-p-nitrophenyl-α-D-maltotrioside was monitored at 400 nm. Reactions were run at 30° C. in 50 mM sodium phosphate, 100 mM sodium chloride (pH 7.0). Reactions were monitored over 5 minutes to measure the initial reaction rate. […] Reactions were run with a final [CNPG3]=5 mM. […] Up to 5 different enzyme concentrations were used, ranging from 1 nM to 10 nM. v/vo was plotted against [I] for each enzyme concentration to form a series of dose response curves. […] Kiapp was then used to calculate Ki. […] Details of this process can be found in the work done by Tarling et al. (33). After kinetic analysis with HPA, nine additional enzymes were tested against helianthamide. Concentrations of up to 1 μM of Helianthamide were used to assess for inhibition.
# (§2) Inhibition of nine other glycosidases was explored (TABLE 4).
# [6] = biological target: T3, Jack bean α-mannosidase (Canavalia ensiformis, UniProt C0HJB3); assay: Inhibitory specificity: kinetic analysis; assay type: biochemical; details: up to 1 μM
# T3 construct: Jack bean α-mannosidase; from tissue; host or cells: jack bean
# T3 sequence (C0HJB3 1-981): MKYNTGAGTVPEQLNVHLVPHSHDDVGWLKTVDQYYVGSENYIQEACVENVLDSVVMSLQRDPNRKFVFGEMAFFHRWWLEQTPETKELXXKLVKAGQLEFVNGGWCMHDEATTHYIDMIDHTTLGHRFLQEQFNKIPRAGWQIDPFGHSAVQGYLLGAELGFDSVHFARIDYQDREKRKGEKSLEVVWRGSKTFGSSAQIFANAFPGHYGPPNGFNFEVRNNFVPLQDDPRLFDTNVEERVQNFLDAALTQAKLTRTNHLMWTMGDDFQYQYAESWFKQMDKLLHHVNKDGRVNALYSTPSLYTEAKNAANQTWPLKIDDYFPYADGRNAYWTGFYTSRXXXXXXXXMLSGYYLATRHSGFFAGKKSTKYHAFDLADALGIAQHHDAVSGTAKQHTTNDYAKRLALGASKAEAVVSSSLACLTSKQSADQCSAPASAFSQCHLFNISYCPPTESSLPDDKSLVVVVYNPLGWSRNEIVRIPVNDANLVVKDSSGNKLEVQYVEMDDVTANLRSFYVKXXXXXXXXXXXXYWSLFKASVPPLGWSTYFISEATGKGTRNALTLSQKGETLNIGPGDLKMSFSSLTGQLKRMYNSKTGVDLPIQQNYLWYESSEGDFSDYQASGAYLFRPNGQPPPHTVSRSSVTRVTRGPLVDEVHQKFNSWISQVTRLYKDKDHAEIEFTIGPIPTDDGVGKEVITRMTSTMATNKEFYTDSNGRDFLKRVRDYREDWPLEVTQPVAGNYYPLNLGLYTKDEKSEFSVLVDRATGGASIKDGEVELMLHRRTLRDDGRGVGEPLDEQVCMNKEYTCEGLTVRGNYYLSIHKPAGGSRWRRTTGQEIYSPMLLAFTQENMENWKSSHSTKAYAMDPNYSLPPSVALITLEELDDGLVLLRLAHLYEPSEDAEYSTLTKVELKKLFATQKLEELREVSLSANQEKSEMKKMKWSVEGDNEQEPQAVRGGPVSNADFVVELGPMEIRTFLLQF
# Protocol: as §1, §2
# [7] = biological target: Almond β-glucosidase; assay: Inhibitory specificity: kinetic analysis; assay type: biochemical; details: up to 1 μM
# Protocol: as §1, §2
# [8] = biological target: Brewer's yeast α-glucosidase; assay: Inhibitory specificity: kinetic analysis; assay type: biochemical; details: up to 1 μM
# Protocol: as §1, §2
# [9] = biological target: T4, Green coffee bean α-galactosidase (Coffea arabica, UniProt Q42656); assay: Inhibitory specificity: kinetic analysis; assay type: biochemical; details: up to 1 μM
# T4 construct: Green coffee bean α-galactosidase; from tissue; host or cells: green coffee beans
# T4 sequence (Q42656 16-378): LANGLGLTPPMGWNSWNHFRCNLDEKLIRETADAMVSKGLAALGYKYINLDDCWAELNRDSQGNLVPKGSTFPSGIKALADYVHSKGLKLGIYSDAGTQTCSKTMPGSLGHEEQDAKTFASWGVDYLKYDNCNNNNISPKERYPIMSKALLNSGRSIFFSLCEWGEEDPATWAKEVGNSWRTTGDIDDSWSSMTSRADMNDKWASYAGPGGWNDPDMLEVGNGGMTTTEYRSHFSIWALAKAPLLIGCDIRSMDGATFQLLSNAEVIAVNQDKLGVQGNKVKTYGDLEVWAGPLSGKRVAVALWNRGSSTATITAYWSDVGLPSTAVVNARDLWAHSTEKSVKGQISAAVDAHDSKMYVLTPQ
# Protocol: as §1, §2
# [10] = biological target: Bovine liver β-galactosidase; assay: Inhibitory specificity: kinetic analysis; assay type: biochemical; details: up to 1 μM
# Protocol: as §1, §2
# [11] = biological target: Bacillus licheniformis α-amylase (Bacillus licheniformis, UniProt P06278); assay: Inhibitory specificity: kinetic analysis; assay type: biochemical; details: up to 1 μM
# Chain of Bacillus licheniformis α-amylase (P06278 30-512): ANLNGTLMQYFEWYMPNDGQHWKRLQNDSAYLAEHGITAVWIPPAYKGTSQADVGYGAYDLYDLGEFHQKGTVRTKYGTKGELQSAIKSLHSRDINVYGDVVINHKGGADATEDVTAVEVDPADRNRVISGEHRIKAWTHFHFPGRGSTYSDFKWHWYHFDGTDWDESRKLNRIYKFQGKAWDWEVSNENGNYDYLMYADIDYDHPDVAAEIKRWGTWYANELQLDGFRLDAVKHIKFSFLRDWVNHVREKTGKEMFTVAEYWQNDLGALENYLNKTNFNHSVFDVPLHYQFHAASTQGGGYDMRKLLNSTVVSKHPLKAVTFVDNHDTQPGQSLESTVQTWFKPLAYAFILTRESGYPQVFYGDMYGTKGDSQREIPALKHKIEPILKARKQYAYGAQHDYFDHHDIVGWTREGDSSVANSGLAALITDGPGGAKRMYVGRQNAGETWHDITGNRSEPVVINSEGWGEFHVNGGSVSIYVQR
# Protocol: as §1, §2
# [12] = biological target: Butyrivibrio fibrisolvens α-amylase B; assay: Inhibitory specificity: kinetic analysis; assay type: biochemical; details: up to 1 μM
# Protocol: as §1, §2
# [13] = biological target: Roseburia inulinivorans α-amylase A; assay: Inhibitory specificity: kinetic analysis; assay type: biochemical; details: up to 1 μM
# Protocol: as §1, §2
# [14] = biological target: T2, human pancreatic α-amylase (HPA); assay: Kinetic analysis of HPA inhibition (CNP-G3 hydrolysis, Morrison / Michaelis-Menten); assay type: biochemical; details: for Ki / inhibition constant estimated in preliminary tests: preliminary inhibitory studies with remaining material
# Protocol: A detailed protocol of this expression can be found in the work done by Rydberg et al. (39) Expression was carried out in Pichia pastoris. Colonies were grown in 600 mL BMGY media at 30° C. 200 RPM. 20 mL of the overnight culture was added to 600 mL BMGY. After 16 hours the cells were transferred to 300 mL BMMY. After one day 2 mL of 50% methanol was added. The culture was left overnight. The culture supernatant was collected and purified via Phenyl Sepharose™ and Hitrap Q™ columns. Deglycosylation was performed with EndoF™.
# Reactions were run with a final [CNPG3]=5 mM. […] Kiapp was then used to calculate Ki.
# Given the low-nM estimate of Ki for the natural extract, kinetic analysis could not be pursued through standard Michaelis-Menten kinetics (22). In this study, inhibition constants below 50 nM were determined using the Morrison method: inhibition dose response curves at [S]=KM were constructed for varying enzyme concentrations (23, 24). The resulting data (FIG. 2A) was fit to the Morrison equation 1 to determine Ki,app, which could be converted to Ki through equation 2, which is the relationship between these values for competitive inhibition.
substance,measurement,setting,value
Ac-YIYHGVSGI-NH2 (listed as Stichodactyla helianthus) [truncated peptide],Inhibitory Activity,[1],25 µM
Montbretin A,Ki,[2],8 nM
"ESGNSCYIYHGVSGICKASCAEDEKAMAGMGVCEGHLCCYKTPW (listed as Stichodactyla helianthus) [helianthamide, 44 amino acid peptide from the sea anemone Stichodactyla helianthus; natural, synthetic and recombinant forms]",intact peptide remaining after acid incubation,[3],a large proportion of intact peptide remained
same,resistance to proteolysis,[4],resistant to proteolysis
same,Ki,[5],> 1000 nM
same,Ki,[6],> 1000 nM
same,Ki,[7],> 1000 nM
same,Ki,[8],> 1000 nM
same,Ki,[9],> 1000 nM
same,Ki,[10],> 1000 nM
same,Ki,[11],> 1000 nM
same,Ki,[12],> 1000 nM
same,Ki,[13],> 1000 nM
same,Ki / inhibition constant estimated in preliminary tests,[14],low-nM
same,Ki / inhibition constant estimated in preliminary tests,[14]; listed as Helianthamide,low nanomolar; also recorded: low nano-molar
same,mode of HPA inhibition,"[14]; preliminary tests, natural material",reversible competitive inhibition
Ac-CYIYHGVSGIC-NH2 (disulfide 1-11 (inferred); listed as Stichodactyla helianthus) [truncated peptide],Inhibitory Activity,[1],30 µM
"Ac-YIYH-NH2 (listed as Stichodactyla helianthus) [truncated peptide, Ac represents the acetyl functional group]",mammalian alpha-amylase inhibitory activity (in words),[1],did not have detectable
same,Inhibitory Activity,[1],no inhibition detected
